According to publication PMC10609481, “Substrate DNA Promoting Binding of Mycobacterium tuberculosis MtrA by Facilitating Dimerization and Interpretation of Affinity by Minor Groove Width”:

Biological target: T1, MtrA (Mycobacterium tuberculosis H37Rv, UniProt P9WGM7 1-228)
T1 sequence: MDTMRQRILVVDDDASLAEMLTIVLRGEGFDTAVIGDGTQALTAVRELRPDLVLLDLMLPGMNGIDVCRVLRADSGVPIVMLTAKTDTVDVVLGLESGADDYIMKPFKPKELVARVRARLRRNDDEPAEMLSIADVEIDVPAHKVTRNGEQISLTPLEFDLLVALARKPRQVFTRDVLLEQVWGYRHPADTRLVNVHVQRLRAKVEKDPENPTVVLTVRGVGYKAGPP
Assay: BLI
Conditions: protein: recombinant; tags: His6 (pET28a, BamHI/XhoI; N-terminal, inferred from stop codon in reverse primer); chain copies: 2; blunt

B1: Rv3859c G20A T21A (dsDNA)
DNA 1: GTTACGTGATCGAATTGTGAACCAGG
DNA 2: CCTGGTTCACAATTCGATCACGTAAC
**Q.** B1 was tested. Which Kd did it give?
**A.** 19.5 µM

B2: Rv3859c G20T (dsDNA)
DNA 1: GTTACGTGATCGAATTGTGTTCCAGG
DNA 2: CCTGGAACACAATTCGATCACGTAAC
**Q.** For B2, which Kd is on record?
**A.** 4380 µM

B3: Rv3859c G20A T21C (dsDNA)
DNA 1: GTTACGTGATCGAATTGTGACCCAGG
DNA 2: CCTGGGTCACAATTCGATCACGTAAC
**Q.** How did the Kd turn out when B3 was run?
**A.** 0.124 µM

B4: Rv3859c G20C (dsDNA)
DNA 1: GTTACGTGATCGAATTGTGCTCCAGG
DNA 2: CCTGGAGCACAATTCGATCACGTAAC
**Q.** With B4 as the binder, how does the Kd read?
**A.** 7120 µM

B5: Rv3859c G20A (dsDNA)
DNA 1: GTTACGTGATCGAATTGTGATCCAGG
DNA 2: CCTGGATCACAATTCGATCACGTAAC
**Q.** How did the Kd turn out when B5 was run?
**A.** 0.178 µM

B6: Rv3859c G20A T21G (dsDNA)
DNA 1: GTTACGTGATCGAATTGTGAGCCAGG
DNA 2: CCTGGCTCACAATTCGATCACGTAAC
**Q.** How did the Kd turn out when B6 was run?
**A.** 15.7 µM
